Square brackets hold non-standard residues; d marks the D form. Primed or numbered codes have the meaning given here. Side chains are listed from the residue outwards. Ends that are not written are not given here. * marks the point of attachment. N‑PEG5kmaleimide = Cys side chain bound to N-PEG 5 kDa maleimide; Biotin = O=C1N[C@H]2[C@H](CS[C@H]2CCCCC(=O)*)N1; Succinimide(1-Et,3-yl) = CCN1C(=O)CC(*)C1=O; NMeT = CN[C@H](C(=O)O)[C@@H](C)O; NMeL = CN[C@@H](CC(C)C)C(=O)O; NMeK = CN[C@@H](CCCCN)C(=O)O; PEG4(3) = not defined here; NMeS = CN[C@@H](CO)C(=O)O; PEG12′ = not defined here; NMeA = CN[C@@H](C)C(=O)O; Orn = NCCC[C@H](N)C(=O)O; PEG2″ = not defined here; PEG4″ = PEG4 spacer unit; PEG5′ = not defined here; Dab = NCC[C@H](N)C(=O)O; pip = not defined here; PEG4′ = PEG4 spacer; Acm = CC(=O)NC*
Biological target: human Factor IXa (human, UniProt P00740 47-191; P00740 227-461)
Assay: cell-based or functional assay

Binder	EC50 [µM], FXa generation assay [µM]	EC50 [µM], FXa generation assay with hFIXa [µM]
CGGGLVPRGGGRRAPGKLTDLASYKWLFWTGIA [CGGGLVPRGGG-RRAPGKLT-Asp-LASY-Lys-WLFWTGIA]	< 0.5	
C(N‑PEG5kmaleimide)[PEG4′]SKQGRPISPD[dR]RAAGKLTCLASYCWLFWTGIA (cysteine pairing not given here) [C(N-PEG5kmaleimide)-PEG4-SKQGRPISPDrRAAGKLTCLASYCWLFWTGIA]	> 1	
KL[NMeT]CLASYCWLF (cysteine pairing not given here) [KL-MeThr-CLASYCWLF]	< 0.5	
SKQGRPISPDRRAAGKLTDLASY[Orn]WLFWTGIA (not fully specified; printed as SKQGRPISPDRRAAGKLT-Asp-LASY-Orn-WLFWTGIA) [SKQGRPISPDRRAAGKLT-Asp-LASY-Orn-WLFWTGIA]	< 0.5	
ALTCLASYCWLF	> 1	
KLTCL[NMeA]SYCWLF (cysteine pairing not given here) [KLTCL-MeAla-SYCWLF]	> 20	
KLTALASYCWLF	> 1	
KLTCLA[NMeS]YCWLF (cysteine pairing not given here) [KLTCLA-MeSer-YCWLF]	> 20	
[dR]RAPGKLTCLASYCWLFWTGIA[PEG4(3)]C(N‑PEG5k maleimide) (cysteine pairing not given here) [rRAPGKLTCLASYCWLFWTGIA-PEG4-C(N-PEG5k maleimide)]	> 1	
KLTCLASACWLF	< 0.5	
C(Succinimide(1-Et,3-yl))[PEG4′]LVPR[PEG4′][dR]RAPGKLTCLASYCWLFWTGIA (cysteine pairing not given here) [C(N-ethylmaleimide)-PEG4-LVPR-PEG4-rRAPGKLTCLASYCWLFWTGIA]	> 1	
KLTCAASYCWLF	< 0.5	
KLTC[NMeL]ASYCWLF (cysteine pairing not given here) [KLTC-MeLeu-ASYCWLF]	> 20	
KATCLASYCWLF	< 0.5	
RRAPGKLTDLASY[Dab]WLFWTGIA-NH2 (N-terminus assumed; SMILES CC[C@H](C)[C@H](NC(=O)CNC(=O)[C@@H](NC(=O)[C@H](Cc1c[nH]c2ccccc12)NC(=O)[C@H](Cc1ccccc1)NC(=O)[C@H](CC(C)C)NC(=O)[C@H](Cc1c[nH]c2ccccc12)NC(=O)[C@H](CCN)NC(=O)[C@H](Cc1ccc(O)cc1)NC(=O)[C@H](CO)NC(=O)[C@H](C)NC(=O)[C@H](CC(C)C)NC(=O)[C@H](CC(=O)O)NC(=O)[C@@H](NC(=O)[C@H](CC(C)C)NC(=O)[C@H](CCCCN)NC(=O)CNC(=O)[C@@H]1CCCN1C(=O)[C@H](C)NC(=O)[C@H](CCCNC(=N)N)NC(=O)[C@@H](N)CCCNC(=N)N)[C@@H](C)O)[C@@H](C)O)C(=O)N[C@@H](C)C(N)=O) [RRAPGKLT-Asp-LASY-Dab-WLFWTGIA-CONH2]	> 10	
[dK]LTCLASYCWLF (not fully specified; cysteine pairing not given here) [kLTCLASYCWLF]	< 0.5	
RRRKLTCLASYCWLFRRR	> 1	
[dR][dR][dA][dP]G[dK][dL][dT][dC][dL][dA][dS][dY][dC][dW][dL][dF][dW][dT]G[dI][dA] (not fully specified; printed as rrapgkltclasycwlfwtgia (inverso); cysteine pairing not given here) [rrapgkltclasycwlfwtgia (inverso)]	< 0.5	
KLTCLA[dS]YCWLF (cysteine pairing not given here) [KLTCLAsYCWLF]	> 1	
KLACLASYCWLF	< 0.5	
K[NMeL]TCLASYCWLF (cysteine pairing not given here) [K-MeLeu-TCLASYCWLF]	< 0.5	

Binder	EC50 [µM], FXa generation assay [µM]	EC50 [µM], FXa generation assay with hFIXa [µM]
KAACLASACWLA	> 20	
KLTCLAS[dY]CWLF (not fully specified (bridges); printed as KLTCLASyCWLF; cysteine pairing not given here) [KLTCLASyCWLF]	> 5	
KLTCLASYCWL[dF] (cysteine pairing not given here) [KLTCLASYCWLf]	> 1	
CKTYFWK[dP]GNIMVTFC[PEG12′]K([PEG2″-Biotin])[PEG12′][dR]RAPGKLTCLASYCWLFWTGIA (cysteine pairing not given here) [CKTYFWKpGNIMVTFC-PEG12-Lys(PEG2-Biotin)-PEG12-rRAPGKLTCLASYCWLFWTGIA]	> 20	
KKLTCLASYCWLF	< 0.5	
KLTCLASYAWLF	> 1	
SKQGRPISPD[dR]RAAGKLTCLASYCWLFWTGIA[PEG4″]C(N‑PEG5k maleimide) (cysteine pairing not given here) [SKQGRPISPDrRAAGKLTCLASYCWLFWTGIA-PEG4-C(N-PEG5k maleimide)]	> 5	
KLTCLASYCALF	> 1	
[NMeK]LTCLASYCWLF (cysteine pairing not given here) [MeLys-LTCLASYCWLF]	< 0.5	
KKKKLTCLASYCWLFKKK	> 5	
[dA][dI]G[dT][dW][dF][dL][dW][dC][dY][dS][dA][dL][dC][dT][dL][dK]G[dP][dA][dR][dR] (cysteine pairing not given here; also: retro-inverso) [aigtwflwcysalctlkgparr (retro-inverso)]	> 1	
CGGGRRAPGKLTDLASYKWLFWTGIA [CGGG-RRAPGKLT-Asp-LASY-Lys-WLFWTGIA]	< 0.5	
C(PEG 5 kDa)GGGRRAPGKLTDLASYKWLFWTGIA (not fully specified; printed as C(PEG5k)GGG-RRAPGKLT-Asp-LASY-Lys-WLFWTGIA) [C(PEG5k)GGG-RRAPGKLT-Asp-LASY-Lys-WLFWTGIA]	> 1	
C(N‑PEG5kmaleimide)[PEG4′]LVPR[PEG4′][dR]RAPGKLTCLASYCWLFWTGIA (cysteine pairing not given here) [C(N-PEG5kmaleimide)-PEG4-LVPR-PEG4-rRAPGKLTCLASYCWLFWTGIA]	> 1	
ALTCLAAYCALF	> 1	
KLTCLASY[dC]WLF (cysteine pairing not given here) [KLTCLASYcWLF]	> 1	
C(Acm)GGGG[dF][pip]R[PEG5′][dR]RAPGKLTCLASYCWLFWTGIA (cysteine pairing not given here; reading uncertain; also: printed as C(Acm)GGGGfpipR-PEG5-rRAPGKLTCLASYCWLFWTGIA) [C(Acm)GGGGfpipR-PEG5-rRAPGKLTCLASYCWLFWTGIA]	> 1	
AIGTWFLWCYSALCTLKGPARR (not fully specified; printed as AIGTWFLWCYSALCTLKGPARR (retro); cysteine pairing not given here) [AIGTWFLWCYSALCTLKGPARR (retro)]	> 1	
KLTCL[dA]SYCWLF (not fully specified (bridges); printed as KLTCLaSYCWLF; cysteine pairing not given here) [KLTCLaSYCWLF]	> 5	
[dK][NMeL]TCLASYCWLFWTGIA-NH2 (cysteine pairing not given here) [compound 10]		< 0.5
KLTCLASYCWLA	< 0.5	
